Assay results from PMC5809530, “Resculpting the binding pocket of APC superfamily LeuT-fold amino acid transporters” (Cellular and Molecular Life Sciences: CMLS, 2017).

Columns and labels:
[1] = substrate: N[C@@H](CO)C(=O)O; test: cells, lysate or membranes; conditions: transport Km, Na+-free, pH 5.5, about 22 °C, labelled compound, 0.01-20 mM serine
[2] = substrate: O=C(O)[C@@H]1CCCN1; test: cells, lysate or membranes; conditions: transport Km, Na+-free, pH 5.5, about 22 °C, labelled compound, a second Km was measured by TEVC at -60 mV

Row | Protein | Km [1] [µM] | Km [2] [µM]
1 | CG1139 (Drosophila melanogaster) (protein) MNDDIKTVTVYPTTLELTTPTKSANGSNDDYDPHQHRELKNPTTNFQTFAHFLKASVGTGVLAMPSAFAHAGYVNGTLLTLIIGSLALYCLHILIKCMYILCKRQRVPYVSFSQAMNLGLKQGPPWLRCLAPIAVPFVDGFLAFYHFGICCVYVVFIAESIKQLVDEYLVVWDVRIHMCIIIVPLLLIYSIKNLKLLAPFSSAANLLLLVGFGIILYYIFEELPPLSERDPFVAAGKLPTFFGTVLFALEAVGVILAIEENMATPKSFVGPCGILNSGMSIVLGLYVLLGFFGYWKYGNESEGSITLNIPQSEIPAQVVKVFFAITTWISYALQGYVTAHILWDKYLAKRFKETRQTFYELIFRAIIVLLTFGCAVAIPDLSVFLSLVGSFCLSILGLIFPVLLQICVQYTEGYGPFRIKLIINLLLLCFGIFGGVVGTYVSILDIIAVYK | 1310 ± 120 | 1030 ± 180
2 | PAT2 (SLC36A2) (Rattus norvegicus; F159I) (protein) MSVTKSAGSPQVAATVKLDLVSFPESAKKVQSQDPNPVNGSSSESSEKTKGITGFQTLVHLVKGNMGTGILGLPLAVKNAGILMGPLSLLVMGLIACHCMHILVRCAQRFCHRLNKPFMDYGDTVMHGLASSPNTWLQSHAHWGRHAVSFFLIVTQLGICCVYIVFLADNLKQVVEAVNSTTISCHKNETVVLTPTIDSRLYMLAFLPVLGLLVFIRNLRVLTIFSLLANVSMLVSLVIIGQYIIQGIPDPSQLPLVASWKTYPLFFGTAIFSFESIGVVLPLENKMKDARRFPTILSLGMSIITTLYIAIGALGYLRFGDDIKASITLNLPNCWLYQSVKLLYVVGILCTHALQFYVPAEIIIPLAVSQVSKRWALPVDLSIRLALVCVTCMLAILIPRLDLVLSLVGSVSSSALALIIPPLLEVTTYYGEGMSPLTITKDALISILGFMGFVVGTYQALDELIRSGNSLPLSNSTMFIQ | 823 ± 202 | 
